Measurements as given in article PMC2757144 (Molecular cell, 2009).

What was measured:
[1] = target: T1, HMGB1 (from mouse thymus) (mouse, UniProt P63158 1-215); experiment: cross-linking
T1 sequence (looked up): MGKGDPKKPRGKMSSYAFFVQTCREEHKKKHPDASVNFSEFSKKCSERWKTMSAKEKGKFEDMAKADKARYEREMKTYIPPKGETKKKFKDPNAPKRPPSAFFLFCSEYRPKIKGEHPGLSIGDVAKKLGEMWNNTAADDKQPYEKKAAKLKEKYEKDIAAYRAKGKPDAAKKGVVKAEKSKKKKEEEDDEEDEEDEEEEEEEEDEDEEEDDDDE

[2] = target: T2, NSBP1 (HMGN5), wild type, recombinant (mouse, UniProt Q9JL35 1-406); experiment: cross-linking
T2 sequence (looked up): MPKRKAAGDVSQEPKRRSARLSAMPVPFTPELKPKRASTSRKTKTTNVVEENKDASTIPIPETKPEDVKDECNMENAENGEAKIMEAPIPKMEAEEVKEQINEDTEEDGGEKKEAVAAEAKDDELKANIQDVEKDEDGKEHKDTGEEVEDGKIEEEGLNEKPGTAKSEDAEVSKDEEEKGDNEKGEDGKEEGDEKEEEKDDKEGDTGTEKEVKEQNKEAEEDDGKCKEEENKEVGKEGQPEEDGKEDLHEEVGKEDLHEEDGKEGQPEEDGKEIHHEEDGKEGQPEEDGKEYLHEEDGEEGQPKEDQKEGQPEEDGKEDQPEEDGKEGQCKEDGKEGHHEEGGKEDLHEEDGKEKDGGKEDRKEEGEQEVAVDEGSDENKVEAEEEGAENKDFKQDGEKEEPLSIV

binding result [1]: binds
binding result [2]: binds
B1: linker histone H5 (native, from chicken erythrocytes) (natural protein, UniProt P02259 1-190, looked up)
chain: MTESLVLSPAPAKPKRVKASRRSASHPTYSEMIAAAIRAEKSRGGSSRQSIQKYIKSHYKVGHNADLQIKLSIRRLLAAGVLKQTKGVGASGSFRLAKSDKAKRSPGKKKKAVRRSTSPKKAARPRKARSPAKKPKATARKARKKSRASPKKAKKPKTVKAKSRKASKAKKVKRSKPRAKSGARKSPKKK
